Biological target: T1, TRAF6 (UniProt Q9Y4K3 1-522)
T1 sequence: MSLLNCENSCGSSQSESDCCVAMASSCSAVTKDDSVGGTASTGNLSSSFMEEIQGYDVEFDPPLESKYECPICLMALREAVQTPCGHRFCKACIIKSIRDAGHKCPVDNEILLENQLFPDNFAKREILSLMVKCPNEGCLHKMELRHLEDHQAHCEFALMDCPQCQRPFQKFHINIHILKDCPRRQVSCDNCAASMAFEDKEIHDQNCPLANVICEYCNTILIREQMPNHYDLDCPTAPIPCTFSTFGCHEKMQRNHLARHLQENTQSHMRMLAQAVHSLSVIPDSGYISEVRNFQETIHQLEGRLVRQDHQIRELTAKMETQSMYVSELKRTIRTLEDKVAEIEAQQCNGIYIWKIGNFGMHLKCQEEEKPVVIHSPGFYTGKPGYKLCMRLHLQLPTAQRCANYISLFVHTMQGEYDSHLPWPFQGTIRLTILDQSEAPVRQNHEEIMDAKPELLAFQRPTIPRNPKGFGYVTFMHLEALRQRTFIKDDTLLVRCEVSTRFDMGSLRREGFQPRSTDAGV
Test: co-immunoprecipitation and western blot, HEK293T cells (FIG. 3A)

B1: wild-type NS1 (NS1-Myc/His), nonstructural protein 1 of influenza virus strain A/PR/8 (PR8), C-terminal Myc-His tag (other)
chain: MDPNTVSSFQVDCFLWHVRKRVADQELGDAPFLDRLRRDQKSLRGRGSTLGLDIETATRAGKQIVERILKEESDEALKMTMASVPASRYLTDMTLEEMSRDWSMLIPKQKVAGPLCIRMDQAIMDKNIILKANFSVIFDRLETLILLRAFTEEGAIVGEISPLPSLPGHTAEDVKNAVGVLIGGLEWNDNTVRVSETLQRFAWRSSNENGRPPLTPKQKREMAGTIRSEV
B1: no binding.

Reference: patent US20220226463A1 (NATIONAL CHENG KUNG UNIVERSITY, published 2022)
